Our source for the percent of parent values is PMC4014126 (2014).

To fix the notation:
B1: Myc-tagged mouse IL-17RA [mouse] / NF-κB activator 1 (Act1) [mouse (endogenous in MEFs)] (parent complex)
chain 1: SPRLLDFPAPVCAQEGLSCRVKNSTCLDDSWIHPKNLTPSSPKNIYINLSVSSTQHGELVPVLHVEWTLQTDASILYLEGAELSVLQLNTNERLCVKFQFLSMLQHHRKRWRFSFSHFVVDPGQEYEVTVHHLPKPIPDGDPNHKSKIIFVPDCEDSKMKMTTSCVSSGSLWDPNITVETLDTQHLRVDFTLWNESTPYQVLLESFSDSENHSCFDVVKQIFAPRQEEFHQRANVTFTLSKFHWCCHHHVQVQPFFSSCLNDCLRHAVTVPCPVISNTTVPKPVADYIPLWVYGLITLIAILLVGSVIVLIICMTWRLSGADQEKHGDDSKINGILPVADLTPPPLRPRKVWIVYSADHPLYVEVVLKFAQFLITACGTEVALDLLEEQVISEVGVMTWVSRQKQEMVESNSKIIILCSRGTQAKWKAILGWAEPAVQLRCDHWKPAGDLFTAAMNMILPDFKRPACFGTYVVCYFSGICSERDVPDLFNITSRYPLMDRFEEVYFRIQDLEMFEPGRMHHVRELTGDNYLQSPSGRQLKEAVLRFQEWQTQCPDWFERENLCLADGQDLPSLDEEVFEDPLLPPGGGIVKQQPLVRELPSDGCLVVDVCVSEEESRMAKLDPQLWPQRELVAHTLQSMVLPAEQVPAAHVVEPLHLPDGSGAAAQLPMTEDSEACPLLGVQRNSILCLPVDSDDLPLCSTPMMSPDHLQGDAREQLESLMLSVLQQSLSGQPLESWPRPEVVLEGCTPSEEEQRQSVQSDQGYISRSSPQPPEWLTEEEELELGEPVESLSPEELRSLRKLQRQLFFWELEKNPGWNSLEPRRPTPEEQNPS
chain 2: MNRSIPVEVDESEPFPSQLLKPIPEYSPEEELEPPAPNTRNMAPSSLSVLQCPPLKLANHQPVSQQVTCLRAKVLEEGEASFFRRHPELGKDISSCSSGASEPESELGALPPEHRFTLTEKRNRWLGSQLSAASPDTGHESDKSDPSLPNALADSFSGGQEMMPRPRPRPGPHRHRAAPDVPTIDTGYDSQPQDVLGIRQLERPLPLTSSCYLQDLPGPLRSRELPPQFELERYPMNAQLLPPHPSPQAPWNCQYYCPGGPYHHQVPHGHGYPPAAAYQQVLQPALPGQVLPGARARGPRPVQKVILNDSSPQDQEERPAQRDFSFPRLPRDQLYRPPSNGVEAPEESLDLPAELRPHGPQAPSLAAVPRPPSNPLARGTLRTSNLPEELRKVFITYSMDTAMEVVKFVNFLLVNGFQTAIDIFEDRIRGIDIIKWMERYLRDKTVMIIVAISPKYKQDVEGAESQLDEDEHGLHTKYIHRMMQIEFISQGSMNFRFIPVLFPNAKKEHVPTWLQNTHVYSWPKNKKNILLRLLREEEYVAPPRGPLPTLQVVPL

Variants of B1 are the subject of the experiment. The experiment is described as follows: co-immunoprecipitation (anti-Myc IP, Western blot, ImageJ densitometry); IL-17RA-deficient MEFs reconstituted by retroviral infection; treated with IL-17 for 10 min; parent: 100. In general terms: A western blot detects proteins with antibodies after separation by electrophoresis.
Regarding chain 1 E388A, chain 1 Q389A, chain 1 E393A, the percent of parent came out at 107.
Then chain 1 R420A, chain 1 Q423A, chain 1 K427A, with 107; and chain 1 V396A, chain 1 M397A, with 98; and chain 1 I429A, chain 1 L430A, with 102.
